From patent publication US20130129752A1

Legend:
Assay in all cases: cell-based or functional assay
[1] = target: human HA LFA-1 stably expressed on K562 cells (K562-HA LFA-1) (human) (UniProt P20701)
[2] = target: human LFA-1 on cells in the unstimulated, low-affinity conformation (human) (UniProt P20701)
[3] = target: human WT LFA-1 (alpha L beta 2) on cells, activation state not specified at the place cited (human) (UniProt P20701)
Sequence of human WT LFA-1 (alpha L beta 2) on cells, activation state not specified at the place cited (human) (P20701 26-1170, chain 1 of 2): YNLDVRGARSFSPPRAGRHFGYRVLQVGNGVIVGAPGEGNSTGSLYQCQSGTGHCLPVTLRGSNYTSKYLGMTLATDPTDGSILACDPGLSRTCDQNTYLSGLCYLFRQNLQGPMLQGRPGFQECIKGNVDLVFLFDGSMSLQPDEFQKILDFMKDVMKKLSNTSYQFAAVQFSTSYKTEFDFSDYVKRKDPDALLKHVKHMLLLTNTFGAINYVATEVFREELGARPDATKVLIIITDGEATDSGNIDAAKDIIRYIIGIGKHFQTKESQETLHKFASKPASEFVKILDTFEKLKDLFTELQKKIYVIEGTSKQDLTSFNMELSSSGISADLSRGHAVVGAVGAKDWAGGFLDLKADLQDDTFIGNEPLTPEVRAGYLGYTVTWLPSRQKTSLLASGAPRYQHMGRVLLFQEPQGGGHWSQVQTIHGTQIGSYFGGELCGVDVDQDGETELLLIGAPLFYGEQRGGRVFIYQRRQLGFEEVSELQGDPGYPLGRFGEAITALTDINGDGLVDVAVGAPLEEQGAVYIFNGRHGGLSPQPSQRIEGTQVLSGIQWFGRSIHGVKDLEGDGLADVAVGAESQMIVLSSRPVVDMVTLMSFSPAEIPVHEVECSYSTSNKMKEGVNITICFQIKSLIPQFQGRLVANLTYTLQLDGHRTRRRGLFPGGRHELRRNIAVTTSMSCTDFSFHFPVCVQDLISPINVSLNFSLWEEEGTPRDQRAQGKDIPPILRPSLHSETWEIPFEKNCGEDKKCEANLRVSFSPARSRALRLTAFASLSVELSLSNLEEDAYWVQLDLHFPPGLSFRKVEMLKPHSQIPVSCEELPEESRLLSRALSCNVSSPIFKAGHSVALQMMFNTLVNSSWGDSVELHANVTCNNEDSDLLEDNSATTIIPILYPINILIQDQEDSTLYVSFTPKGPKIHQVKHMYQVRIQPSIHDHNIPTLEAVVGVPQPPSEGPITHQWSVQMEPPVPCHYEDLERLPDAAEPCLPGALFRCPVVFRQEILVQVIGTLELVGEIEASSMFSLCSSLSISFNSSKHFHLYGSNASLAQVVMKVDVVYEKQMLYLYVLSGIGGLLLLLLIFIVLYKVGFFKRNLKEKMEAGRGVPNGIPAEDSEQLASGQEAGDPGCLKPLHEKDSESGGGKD
Sequence of human WT LFA-1 (alpha L beta 2) on cells, activation state not specified at the place cited (human) (P05107 23-769, chain 2 of 2, further chain): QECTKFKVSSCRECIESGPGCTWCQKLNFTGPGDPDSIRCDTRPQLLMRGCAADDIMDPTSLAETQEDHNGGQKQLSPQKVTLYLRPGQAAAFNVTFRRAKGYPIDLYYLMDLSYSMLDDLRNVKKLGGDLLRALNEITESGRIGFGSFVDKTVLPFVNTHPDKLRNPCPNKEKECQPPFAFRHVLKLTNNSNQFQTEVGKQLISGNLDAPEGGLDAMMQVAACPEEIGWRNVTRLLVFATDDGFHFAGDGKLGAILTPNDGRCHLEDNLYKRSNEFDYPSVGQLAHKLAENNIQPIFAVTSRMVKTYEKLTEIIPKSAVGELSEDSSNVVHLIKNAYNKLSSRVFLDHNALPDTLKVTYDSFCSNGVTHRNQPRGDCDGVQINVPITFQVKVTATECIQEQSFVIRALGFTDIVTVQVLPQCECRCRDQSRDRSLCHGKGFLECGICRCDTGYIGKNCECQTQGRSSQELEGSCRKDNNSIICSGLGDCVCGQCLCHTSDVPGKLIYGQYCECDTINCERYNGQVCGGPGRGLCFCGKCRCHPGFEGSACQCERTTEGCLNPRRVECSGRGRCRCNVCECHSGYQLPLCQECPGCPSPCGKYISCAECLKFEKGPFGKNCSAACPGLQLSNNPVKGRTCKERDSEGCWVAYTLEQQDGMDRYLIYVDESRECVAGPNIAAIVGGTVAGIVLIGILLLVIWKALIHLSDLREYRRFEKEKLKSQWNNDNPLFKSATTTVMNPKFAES

Sequence of human LFA-1 on cells in the unstimulated, low-affinity conformation (human) (P20701 26-1170, chain 1 of 2): as the sequence (P20701 26-1170, chain 1 of 2) above
Sequence of human LFA-1 on cells in the unstimulated, low-affinity conformation (human) (P05107 23-769, chain 2 of 2, further chain): as the sequence (P05107 23-769, chain 2 of 2, further chain) above

Cy3+ K562 cells/Total K562 cells, % (in vivo Cy3-siRNA delivery, SCID mouse lung, flow cytometry) [1] | Cy3-siRNA delivery to PBMC subsets (flow cytometry), Cy3+ T and B lymphocytes [2] | Cy3+ K562 cells/Total K562 cells, % (in vivo Cy3-siRNA delivery, SCID mouse lung, flow cytometry) [3] | Substance
88.1% | 1 to 2% | 23.3% | AL-57-protamine fusion protein (scFv AL-57 fused to truncated human protamine, residues 8-29, His6 tag) (from UniProt P04553 8-29)
4.2% | – | 4.7% | ML39-protamine fusion protein (control scFv-PF fusion protein that recognizes human ErbB2)
87.4% | – | 88.5% | TS1/22-protamine fusion protein (scFv TS1/22 fused to human protamine residues 8-29, His6 tag) (from UniProt P04553 8-29)
